Assay results published in the DeepSol protein solubility set.

assay: soluble on expression in E. coli; label from the status in PepcDB or PDB records

Sequence | soluble on expression in E. coli
MSLKIKLIAVDLDGTLLTSRKKVSPKTLATLKKAREKGILVVPLSGRPLPGVLKVFEPFKLDPADNFAICYNGGLVQRMDGEVLSVSPLTDENVEHMLALKQTGIFGPYFMDTKDFYVAPKGSSFGVGFLAKARNMGVKRMVPGQHYEFIKGEFVSLPSKIKKFRAGFSPATEQEFEISASGGQCLEFNTPGTSKGQALTTLLDLLNIQPEEAMVFGDNNNDLSDFQLPGVFKVAMGNAIDEIKAAADYVTASNNQDGIALAVEKFVDMEGHHHHHH | soluble
MPLHQVVEPAFYIVVVLDLVSGRLNGHDKDTLGLAQQLANRNSGGGAVVAIAFGELKDDSLNKAGVDRLIHINDEQYDQYNPEQRCNDLQGIIGELDPQHILLPDSINGGGDLGRRLAAALQQRPACGVWKLNDDTVVCR | not soluble
MRAEDLFNDPKSYKRWYELHSKLYENERNVVRSFNLKDCLDVGSGPDIFHEEIGGRIVALDISLLMLKESKSDEKVLADALHLPFRDNSFKCVFSSVTVCFIEDVKGFIREMARITKERAIICFIARDSPWGEYYENLGKSGHKYYSHARFISRREFYVIINDFMKISRIRSTLKKMSETEIDGVYNDDSGSFICVEAIPMKPEPLSLSLNRHSGADPADPIS | not soluble
MFRIGQGFDVHQLVEGRPLIIGGIEIPYEKGLLGHSDADVLLHTVADACLGAVGEGDIGKHFPDTDPEFKDADSFKLLQHVWGIVKQKGYVLGNIDCTIIAQKPKMLPYIEDMRKRIAEGLEADVSQVNVKATTTEKLGFTGRAEGIAAQATVLIQKG | not soluble
MDPSVTLWQFLLQLLREQGNGHIISWTSRDGGEFKLVDAEEVARLWGLRKNKTNMNYDKLSRALRYYYDKNIIRKVSGQKFVYKFVSYPEVAGC | soluble
MNDNLYSLIEQRILVLDGAMGTMIQRHGLDEQDYRGERFASHDHPLKGNNDLLVITRPDIIRSIHCDFLDAGADIIETCTFNANPISQSDYQLQDLTRELNVAAAKIARSAADEFTAKTPDKPRFVAGSIGPTNKTLSLSPDVNNPGFRAVTFQEMVDNYTAQLEGLHEGGVDLLLVETVFDTLNCKAALYAIEEYAVKTGWQVPVMVSGTVVDASGRTLSGQTTEAFWISISHMPSLLSVGLNCALGSKQMRPFIEALSNIAESYVSVYPNAGLPNEFGEYDDSPEYMAAQIAGFAESGFVNIVGGCCGTTPTHIRAIAEAVKTLPPRKRPANKHVLRLSGLEPLVVDETTGFINVGERTNVTGSRKF | not soluble
AGWQSYVDNLMCDGCCQEAAIVGYCDAKYVWAATAGGVFQSITPIEIDMIVGKDREGFFTNGLTLGAKKCSVIRDSLYVDGDCTMDIRTKSQGGEPTYNVAVGRAGRALVIVMGKEGVHGGTLNKKAYELALYLRRSDV | soluble
MVPPTINTGKNITTERAVLTLNGLQIKLHKVVGESRDDIVAKMKDLAMDDHKFPRLPGPNPVSIERKDFEKLKQNKYVVSEKTDGIRFMMFFTRVFGFKVCTIIDRAMTVYLLPFKNIPRVLFQGSIFDGELCVDIVEKKFAFVLFDAVVVSGVTVSQMDLASRFFAMKRSLKEFKNVPEDPAILRYKEWIPLEHPTIIKDHLKKANAIYHTDGLIIMSVDEPVIYGRNFNLFKLKPGTHHTIDFIIMSEDGTIGIFDPNLRKNVPVGKLDGYYNKGSIVECGFADGTWKYIQGRSDKNQANDRLTYEKTLLNIEENITIDELLDLFKWE | soluble
VKRFWENVGKPNDTTDGRGTTSLAMTPISQTPGLLAEAMVDLGAIEHNVRVLREHAGHAQLMAVVKADGYGHGATRVAQTALGAGAAELGVATVDEALALRADGITAPVLAWLHPPGIDFGPALLADVQVAVSSLRQLDELLHAVRRTGRTATVTVKVDTGLNRNGVGPAQFPAMLTALRQAMAEDAVRLRGLMSHMVYADKPDDSINDVQAQRFTAFLAQAREQGVRFEVAHLSNSSATMARPDLTFDLVRPGIAVYGLSPVPALGDMGLVPAMTVKCAVALVKSIRAGEGVSYGHTWIAPRDTNLALLPIGYADGVFRSLGGRLEVLINGRRCPGVGRICMDQFMVDLGPGPLDVAEGDEAILFGPGIRGEPTAQDWADLVGTIHYEVVTSPRGRITRTYREAENR | soluble
MRLYWRMPTTTPALRPQDLTETAFAPYGWMLGKPLPAGDDVLRFSNPATDFWQEHVFDTGAGAGRETEVLWVNYRISQPGFDTLEKHLLTQQAIVPLTGAIVQIVARSAFDGSPDLASLAAFVVPPGQGICMRPGCWHATRISGGEVTCLMLTRRSTTLDLVRHLHGEPARESEIVAIVPHGLDLPARPTAEGPAPHGRLEHHHHHH | not soluble
MSLNKVWLTGLLTATASGVFSASTLAATEITWWHAMGGQLGEMVNQLATDFNASQSDYKLTPVYKGSYTETLTTGIAAFRAGQAPNILQVFDAGAATIMSSKGVAKPVQDLMIESGYPFTAQDYIAGVRNFYADNTGKMVGMPFNSSTPVLYYNKDMLASVNAQAPQTYEQLEQVAAKLAEKGQAGFAQSLAPWIMFENFKSRHNLPLSDKQNGYQDLSTKIMFNSDDMLMHVKKLKEWSDKGYYKYYGSDWDANQTPFERGEVAMWMGSSGSFGGLRNRVKFNLGTTYLPYWESVTKNPTHTFIGGAALFALQGHTPAQDKGVAAFFAYLTKPETQMNWHKTTGYVPVTNAAYDLTKQSGYYQENPDAEVGVKQLSLPDGEWTKGYRLGYYPQVREVMHREFDNIFSGRSTVESSLNKVEDESAKLLNRFARTVQEGGSHHHHHH | soluble
MAVNVYSTSVTSDNLSRHDMLAWINESLQLNLTKIEQLCSGAAYCQFMDMLFPGSIALKKVKFQAKLEHEYIQNFKILQAGFKRMGVDKIIPVDKLVKGKFQDNFEFVQWFKKFFDANYDGKDYDPVAARQGQETAVAPSLVAPALNKPKKPLTSSSAAPQRPISTQRTAAAPKAGPGVVRKNPGVGNGDDEAAELMQQVNVLKLTVEDLEKERDFYFGKLRNIELICQENEGENDPVLQRIVDILYATDEGFVIPDEGGPQEEQEEY | soluble
MGSDKIHHHHHHMTILDHKIDFAVILSVTKANPNGDPLNGNRPRQNYDGHGEISDVAIKRKIRNRLLDMEEPIFVQSDDRKADSFKSLRDRADSNPELAKMLKAKNASVDEFAKIACQEWMDVRSFGQVFAFKGSNLSVGVRGPVSIHTATSIDPIDIVSTQITKSVNSVTGDKRSSDTMGMKHRVDFGVYVFKGSINTQLAEKTGFTNEDAEKIKRALITLFENDSSSARPDGSMEVHKVYWWEHSSKLGQYSSAKVHRSLKIESKTDTPKSFDDYAVELYELDGLGVEVIDGQ | not soluble
MEILRRECGAVEENAYIVKLSSGIDFIIDPGFSSSEWVLENAKNPKAILITHGHYDHVWDGAQLSKLLKNTPIYAPKDDVFMLENDIFHLGMPVFSPNFSVPCNKGCTTLEIANTTIKYWHFPGHTPGCSIIEIEGVIFSGDFIFYRSIGRYDFPYSNEKDMKESLLRFQNLDFPKDIEIYPGHGDKTSFFAEREHSKIWVSRMALEHHHHHH | not soluble
MSNANQKITTFLMFEGKAEEAMNFYTSLFDQSEIVSISRYDENGPGKEGTVIHATFTLNGQEFMCIDSYVNHNFTFTPAMSLYVTCETEEEIDTVFHKLAQDGAILMPLGSYPFSKKFGWLNDKYGVSWQLTLAE | soluble
MGSDKIHHHHHHMQLKPLLRQLATTFEVTVDPTFTHNPEVTHVQFVDPTEALASHRLYLSPDSSQLVQLTYSWHGHRQSVGLVNLGTGLTTIIAAQNQLLKLLMTLGQCLHHDVQIQAAINQLAIQAITADFDTTLAQAVRLLENPLAIIDLNGEILTRSHTTQLNGTSIHAAVETNRVGRWLLDHGFAPDTPDFLTQVYVAEDQLSAGPMLITPLANGTEPLGYLVMPALNKPLNDRQALLINSIGQVIAGSLVKNQIMPTAESQRDRLLNLLLTEHQGGTFADQFAEQHVQLPTAMVLIRCEPLADQAPMILQQRLQYLMMPRFKQVLVSTYQQQCVALIPISLVAYNQNQFKLTLQQITKQADCRLIVSQHYVNPEDTFAAYTVCERTAQLKTGRGRVIFCEDQFYNLALARVNHLEILPFFINPALRLLLAYDQQNHTELVPTLDVYLRATCNLTRTAKQLYVHPNTLRNRLHHITTLTGCDLRDAETCFKLAASFKLRQFLTQHQYQYRPDIPIPTQD | not soluble
MQKMDCQAIGYGYIIIPKALLKEQLIDCSPHEGEIEAFLKLLVKVNYSETKLTDHQRRTIVCKRGESLHSYRSWSAIFHWPTSRTYRFIQQLKTNGIIEIIPHNDTTALHIRVVNYENWTNISALLNEKKENTQKASNEKFRLFWDDYHNILQLPKENIAKAQRIWKKLSEKEQQLAIDHIEEYYYHQTNMKFTLHACSYLSNKAFLNEYEY | not soluble
